Experimental findings from publication PMC3278457 are described below.

The target of one assay is spinophilin (striatal) (UniProt Q6R891). The experiment in a line: co-IP with spinophilin antibody, striatal extract. The note with it: reference: wild-type mice; sites T286.
Assay [1] has as its target spinophilin (GST fusion fragments) 1-300 (UniProt O35274). Briefly: GST pull-down from striatal extract. The note with it: reference: wild-type mice; sites T286.
Assay [2] addresses spinophilin, endogenous in mouse striatal TSF (mouse (endogenous in striatum)) (UniProt Q6R891). Briefly: co-IP; spinophilin immunoprecipitated with 4 µg goat spinophilin antibody from mouse striatal TSFs (WT or T286A-KI; PND21 or adult); immunoblot. A general note: A western blot detects proteins with antibodies after separation by electrophoresis.

Chain of UniProt Q6R891 (Q6R891 whole entry, the tested form may be a part): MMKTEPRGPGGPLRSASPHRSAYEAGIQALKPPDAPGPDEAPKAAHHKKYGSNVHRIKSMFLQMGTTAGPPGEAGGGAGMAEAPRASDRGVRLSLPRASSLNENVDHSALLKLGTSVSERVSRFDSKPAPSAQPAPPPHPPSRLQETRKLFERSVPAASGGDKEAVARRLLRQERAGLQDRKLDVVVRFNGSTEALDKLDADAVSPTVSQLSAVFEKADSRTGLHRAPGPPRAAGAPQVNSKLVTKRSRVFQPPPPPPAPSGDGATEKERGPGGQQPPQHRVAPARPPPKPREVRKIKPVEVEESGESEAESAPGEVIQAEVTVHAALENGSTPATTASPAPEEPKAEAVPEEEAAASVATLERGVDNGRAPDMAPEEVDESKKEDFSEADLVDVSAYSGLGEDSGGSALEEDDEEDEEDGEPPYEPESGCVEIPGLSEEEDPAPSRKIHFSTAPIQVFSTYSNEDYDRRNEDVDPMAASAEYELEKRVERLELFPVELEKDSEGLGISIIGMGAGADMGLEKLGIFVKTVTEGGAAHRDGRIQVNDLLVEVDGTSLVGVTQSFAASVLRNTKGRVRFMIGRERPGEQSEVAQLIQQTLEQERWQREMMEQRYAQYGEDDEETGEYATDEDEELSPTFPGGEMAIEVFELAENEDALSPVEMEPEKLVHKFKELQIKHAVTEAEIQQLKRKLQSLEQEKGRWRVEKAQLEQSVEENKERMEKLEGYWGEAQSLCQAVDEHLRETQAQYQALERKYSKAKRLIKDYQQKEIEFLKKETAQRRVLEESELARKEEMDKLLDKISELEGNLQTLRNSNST

For the substance “CaMKIIα (from UniProt P11798) T286A knock-in mice”, in the assay with spinophilin (striatal), the “other: reduction relative to wild type” value was “weaker”. Moreover, in assay [1], the “binding against the reference” value is recorded as “weaker”.
Turning to “CaMKIIα T286A, endogenous in T286A-KI mouse striatum (from UniProt P11798 1-478) (enzyme)”, the reduction of CaMKIIα in spinophilin immune complexes, T286A-KI against WT in assay [2] was determined as 50%.
